Assay results taken from PMC4716839.

Experiments:
[1] = test system: Dna2 D278A (nuclease-dead) (Mus musculus); experiment: bead pull-down; details: DNA preloaded with Rpa, EMSA: 20 mM Tris-HCl pH 8.0, 80 mM NaCl, 0.3 mM TCEP, 0.2 mg/mL BSA, 2% glycerol, on ice 30 min, 0.075 or 0.3 nM 32P-DNA, 4% native PAGE, 1x TB, 4 C, scale: % Dna2 loading relative to reaction lacking Rpa
[2] = test system: Dna2 D278A (nuclease-dead) (Mus musculus); experiment: EMSA; details: Kd only in figure; EMSA: 20 mM Tris-HCl pH 8.0, 80 mM NaCl, 0.3 mM TCEP, 0.2 mg/mL BSA, 2% glycerol, on ice 30 min, 0.075 or 0.3 nM 32P-DNA; 4% native PAGE, 1x TB, 4 C; scale: affinity relative to 5'(dT)24

| Substance | binding signal [2] | further results |
| --- | --- | --- |
| 3'-(dT)26 overhang DNA, biotinylated | – | binding signal ([1]; negligible loading): 3 |
| 5'(dT)6 overhang DNA | 0.01 | – |
| 5'(dT)8 overhang DNA | 0.01 | – |
| 5'-(dT)26 overhang DNA, biotinylated | – | binding signal [1]: 45 |
